In paper PMC3172369 (Biochemistry, 2011):

Tests used:
native gel or EMSA = molecular target: the molecule itself; test: native gel or EMSA
crystal structure = molecular target: the molecule itself; test: crystal structure

| Protein | stoichiometry N (native gel or EMSA) | stoichiometry N (crystal structure) |
| --- | --- | --- |
| Np-core labelled at Cys41 with a DyLight dye (domain or fragment, Xenopus laevis, UniProt P05221 11-124, looked up, DyLight 549-maleimide or DyLight 649-maleimide on Cys41) LEKPVSLIWGCELNEQDKTFEFKVEDDEEKCEHQLALRTVCLGDKAKDEFNIVEIVTQEEGAEKSVPIATLKPSILPMATMVGIELTPPVTFRLKAGSGPLYISGQHVAMEEDY | 5 |  |
| human Npm2-core domain (T15-E122) (domain or fragment, UniProt Q86SE8 15-122, looked up) TTVLWGCELSQERRTWTFRPQLEGKQSCRLLLHTICLGEKAKEEMHRVEILPPANQEDKKMQPVTIASLQASVLPMVSMVGVQLSPPVTFQLRAGSGPVFLSGQERYE |  | 5 |
